The values below come from publication PMC3091952.

Common to all, as to assay: pull-down
In experiment [1] the target is PAD4 R419Q, labelled with BFA (human) (UniProt Q9UM07).
The target of experiment [2] is PAD4 R484Q, labelled with BFA (human) (UniProt Q9UM07).
Experiment [3] deals with PAD4 R123Q, labelled with BFA (human) (UniProt Q9UM07).
Experiment [4] deals with PAD4 R609Q, labelled with BFA (human) (UniProt Q9UM07).
Experiment [5] deals with PAD4 R639Q, labelled with BFA (human) (UniProt Q9UM07).

Consider “Histone Deacetylase 1 (HDAC1) (from UniProt Q13547 1-482) (enzyme)”, for which the fold decrease of affinity against wild type PAD4 in experiment [1] came out at 1.4 fold; in experiment [2] it was 1.4 fold; in experiment [3], 3.3 fold.

On to “Protein Arginine Methyltransferase 1 (PRMT1) (from UniProt Q99873 1-371) (enzyme)”, for which the fold reduction of affinity against wild type PAD4 in experiment [4] turned out to be 3.3 fold; in experiment [5], 5 fold; in experiment [2] it was 10 fold; in experiment [3], 2 fold.
